Assay results published in patent US20180334496A1 (KODIAK SCIENCES, published 2018).

Tests used:
Experiment in all cases: SPR MX96
[1] = molecular target: T1, human complement factor D purified from serum (human, UniProt P00746 26-253)
T1 construct: serum-purified (CompTech); also called hCFD-Comptech; CFD

[2] = molecular target: T2, recombinant cynomolgus CFD, His-tagged (cynomolgus)
T2 construct: also called rcyCFD-His; recombinant Cyno-CFD

[3] = molecular target: T3, recombinant human CFD, His-tagged (human, UniProt P00746 26-253)
T3 construct: also called rhCFD-His

[4] = molecular target: T4, recombinant human CFD mutant 1 (R157A, R207A), His-tagged (human, UniProt P00746 26-253)
T4 construct: positions are linear positions in the mature protein; also called rhCFD-mut1-His; Mut1
T4 sequence (P00746 26-253 R182A/R232A limits assumed): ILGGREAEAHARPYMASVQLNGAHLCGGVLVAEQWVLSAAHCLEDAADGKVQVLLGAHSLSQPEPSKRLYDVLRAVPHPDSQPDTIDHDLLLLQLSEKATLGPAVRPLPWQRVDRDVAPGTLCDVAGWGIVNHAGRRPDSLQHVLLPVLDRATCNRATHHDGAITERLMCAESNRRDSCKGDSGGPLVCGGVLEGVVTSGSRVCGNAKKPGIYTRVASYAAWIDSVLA

T3 sequence (P00746 26-253 limits assumed): as the sequence (P00746 26-253 R182A/R232A limits assumed) above, with A157R, A207R counted along it
T1 sequence (P00746 26-253): as the sequence (P00746 26-253 R182A/R232A limits assumed) above, with A157R, A207R counted along it

Kd [1] [nM]	Kd [2] [nM]	Kd [3] [nM]	Kd [4] [nM]	Binder
11	93	19	28	KCD033 (antibody, V domains shown) VH: EVQLQQSGPELVKPGASMKISCTASGYSFTGYTMTWVKQSHGKNLEWIGLINPYNGGTNYNQKFKGKATLTVDKSSSIAYMELLSLTSEDSAVYYCARRHYGSNWDYWGQGTTLTVSS VL: DIKLTQSPSSIYTSLGERVTITCKASQDINTYLSWFQQRPGKSPKTLIYRADRLVDGVPSRVRGSGSGQDYSLTISSLEYEDMGIYYCLQYDEFPYTFGGGTKLEIK
26	64	29	80	KCD036 (antibody, V domains shown, chimeric) VH: EVQLQQSGPELVKPGASMKISCKASGYSFTGYTMTWVKQSHGKNLEWIGLINPYNGGTNYNQKFKGKATFTVDKSSSTAYMELLSLTSEDSAVYYCARRHYGSSWDYWGQGTTLTVSS VL: DIKLTQSPSSMYASLGERVTITCKASQDINTYLSWFQQKPGKSPKTLIYRANRLVDGVPSRFSGSGSGQDYSLTISSLEYEEMGIYYCLQYDEFPYTFGGGTKLEIK
8.7	46	5	6.2	KCD225 (antibody, V domains shown) VH: QVQLQQSGPELVKPGASVKISCKASGYTFTDYYINWMKQRPGQGLEWIGWIFPGSDSTYYNEKFKGKATLTVDKSSSTAYMLLSSLTSEDSAVYFCARLGYYSHSYYAMDYWGQGTSVTVSS VL: DIQMTQSPASLSVSTGETVTITCRASENIYSNLAWFQQKQGKSPQLLVYAATNLADGVPSRFSGSGSGTQYSLKITSLQSEDFGSYYCQHFWGTPLTFGAGTKLDLK
2.6	8	1.6	1.4	KCD132 (antibody, V domains shown) VH: QVQLQQSGPELVKPGASVKISCKASGYSFTDYYINWVKQRPGQGLEWIGWIFPGSGSTYYNEKFKGKATLTVDKSSSTAYMLLSSLTSEDSAVYFCARTGYYSNLYAVDYWGQGTSVTVSS VL: DIQMTQSPASLSVSVGETVTITCRASENIYSNLAWYQQKQGKSPQLLVYVATNLADGVPSRFSGSGSGTQYSLKINSLQSEDFGNYYCQHFWGTPYTFGGGTKLEMR
4.3	12	3	3.6	KCD219 (antibody, V domains shown) VH: QVQLQQSGPELVKPGASVKISCKASGYTFTDYYINWVKQRPGQGLEWIGWIFPGSGSTYYNEKFKGKATLTVDKSSSTAYMLLSSLPSEDSAVYFCARYGYYGSSFYAMDYWGQGTSVTVSS VL: DIQMTQSPASLSVSVGETVTITCRASENIYSNLAWYQQKQGKSPQLLVYAATNLADGVPSRFSGSGSGTQYSLKINSLQSEDFGSYYCQHFWGSPPTFGGGTKLEIK
5.3	3.8	3.3	3.5	KCD139 (antibody, V domains shown) VH: EVQLQQSGAELVRPGSSVKMSCKTSGYTFTSYGINWVKQRPGQGLEWIGYIYIANGYTENNEKFKGKAKLTSDISSSTAYMQLSSLTSEDSAIYFCARRFDYAGALDYWGQGTSVTVSS VL: DIVLTQSPASLAVSLGQRATISCRASESVDSYGNSFMHWYQQKPGQPPKLLIHRASNLESGIPARFSGSGSRTDFTLTINPVEADDVAIYYCQQTNDDPYTFGGGTNLEIK
14	3.3	14	13	KCD128 (antibody, V domains shown) VH: QVQLQQPGAELVRPESSVKLSCKASGYTFTSYWMDWVMQRPGQGLEWIGNIYPSGSETHYNQKFKDKATLTVDKSSTTAYMQLSSLTFEDSAVYYCARSGFIGSRYLYYFDYWGQGTTLTVSS VL: DIVMTQSHKFMSTSVGDRVTITCKASQDVSNAVAWYQLKPGQSPKLLIYSASYRYTGVPDRFTGSGSGTDFTFTISSVQAADLAVYYCQQHYITPYTFGGGTKLEIK
57	54	83	110	KCD022 (antibody, V domains shown) VH: DVQLQESGPDLVKPSQSLSLTCTVTGYSITSGYSWHWIRQFPGNTLEWMGYIHYSGSTNYNPSLESRISFTRDTSKNQFFLQLNSVTTEDTATYYCALHFYGYNLGWYFDVWGAGTTVTVSS VL: DIVMTQSHKFMSTSIGDRVIITCKASQDVGTTVAWYQQRPGQSPKLLIYWASTRHTAVPDRFTGSGSGTDFTLTISNVQSEDLADYFCQQYTSYPLTFGAGTQLELK
0.5	5.9	5.5	4.6	KCD137 (antibody, V domains shown) VH: EVQLVESGGDLVKPGGSLKLSCAASGFTFSGYGMSWVRQIPDKRLEWVAISSRDNSFTYYPDSVKGRFTISRDNAKNTLYLQMSSLKSEDTALYFCTRHPYLPTGGYVMDYWGQGTSVTVSS VL: DIVMTQSHKFMSTSVGDRVSITCKASQDVGTAVAWYQQRPGQSPKLLIYWASTRHTGVPDRFTGSGSGTDFTLTVSNVQSEDLADYFCQQYTSYPLTFGAGTKLELK
3.7	3.2	2.5	3.4	KCD075 (antibody, V domains shown) VH: QVQLLQPGAELVRPGTSVKLSCKASGYTFSNYWINWVKQRPGQGLEWIGNIYPSDSSINYNQKFKDKATLTVDKSSTTAYMQLSSPTSEDSAVYYCTGTDWYFDVWGAGTTVTVSS VL: DIQMTQTTSSLSASLGDRVTISCSGGQGISNYLNWYQQKPDGTFKLLIYYTSTLHSGVPSRFSGSGSGTDYSLTISNLEPEDVATYYCQQYSKLPYTFGGGTKLEIK
2.5	2.7	1.6	0.88	KCD230 (antibody, V domains shown) VH: QVQLQQPGTELVKPGASVKLPCKASGYTFTSYWMQWVKQRPGQGLEWIGEIDPSDTYINYNQKFKGKATLTVDTSSTTAYMQLSSLTSEDSAVYYCARYTTIMASDYWGQGTTLTVSS VL: DIQMTQTTSSLSVSLGDRVTISCRASQDITNYLNWYQQKPDGTVKLLIYFTSRLHSGVPSRFSGSGSGTDYSLTISNLEPEDIATYYCQQYSKLPWTFGGGTKLEIK
24	19	32	62	KCD062 (antibody, V domains shown) VH: EVKLVESGGGLVQPGGSLKLSCAASGFTFSTYIMSWVRQTPEKRLEWVAYITSGGSSTYYPDTVKGRFTISRDNAKSTLYLQMSSLKSEDTAMYYCARHAHFYAMDYWGQGTSVTVSS VL: DIQMTQSPSSLSASLGGKVTITCKASQDINKYIAWYQHKPGKGPRLLIHYTSTLQPGIPSRFSGSGSGRDYSFSISNLEPEDIATYYCLQYDNLLYTFGGGTKLEIK
20	15	20	37	KCD064 (antibody, V domains shown) VH: EVKLVESGGGLVQPGGSLKLSCAASGFTFSSYIMSWVRQTPEKRLGWVAYITSGGGSTYYPDTVKGRFTISRDNAKNTLYLQMSSLKSEDTAMYYCARHGTGYAMDYWGQGTSVTVSS VL: DIQMTQSPSSLSASLGGKVTITCKASQDINKYIAWYQHKPGKGPRLLIHYTSTLQPGIPSRFSGSGSGRDYSFSISNLEPEDIATYYCLQYDNLLYTFGGGTELEIK
0.47	3.8	0.21	0.2	KCD212 (antibody, V domains shown) VH: EVHLVESGGDLVKPGGSLKLSCAASGFTFSRYGMSWVRQTPDKRLEWVATISSAGSYTYYPDSVKGRFTISRDNAKNTLFLQMSSLKSEDTAMYYCARPLNYYGTSSFDYWGQGTTLTVSS VL: QIVLTQSPAIMSASPGEKVTMTCRASSSVSSTYLHWYQQKPGSSPKLWIYSTSNLASGVPPRFSGSGSGTSYSLTISSVEAEDAATYYCQQYDSSPNTFGAGTKLELK
0.22	0.63	0.22	0.19	KCD001 (antibody, V domains shown) VH: EVQLQQSGPELVKPGASVKISCKASDNSFTGYYMHWVKQSHGNILDWIGYIDPYNGVSSYNQKFKGKATLTVDKSSSTAYMEIRSLTSEDSAVYYCASYYGSSPYWYFDVWGTGTTVTVSS VL: QIVLSQSPAILSASPGEKVTMTCRASSSVSYMHWYQQKPGSSPKPWIYATSNLASGVPARFSGSGSGTSHFLTISRLEAEDAATYFCQQWSSNPYTFGGGTKLEIK
3.7	5.3	2	4.1	KCD110 (antibody, V domains shown) VH: EVQLQQSGPELVKPGASVKISCKASGYSFTGYYMHWVKQSHGNILDWIGYIDPDNGVSSKNQKFTGKATVTADKSSSTAYMELRSLTSEDSAVYYCAGYYGSSWYWYFDVWGTGTTVTVSS VL: QIVLSQSPAILSASPGEKVTMTCRASSSVSYMHWYQQKPGSSPKPWIYATSNLASGVPARFSGSGSGTSYSLTISRVEAEDAATYYCQQWSSNPYTFGGGTKLEIK
7.3	93	11	19	KCD013 (antibody, V domains shown) VH: EVQLQQSGAELVKPGASVKLSCTASGFKIKDTYMHWVKERPDQGLEWIGRIDPANGNTKYDPKFQGKATITADTSSNTAYLQLSSLTSEDTAVYYCANAMDYWGQGTSVTVSS VL: QIILTQSPAIMSASPGEKVTMTCSASSSVSNMYWYQQKPGSSPRLLIYDTSNLASGVPVRFSGSGSGASYSLTISRMEAEDAATYYCQQWSSYPWTFGGGTKLEIK
6.2	250	4.5	3.7	KCD015 (antibody, V domains shown) VH: EVQLQQSGAELVKPGASVKLSCTASGFNIKDTYMHWVKQRPEQGLEWIGRIDPANGYTEYDPKFQGKATITADTSSNTAYLQLSSLTSEDSAAYYCTSAMEFWGQGTSVTVSS VL: QIVLTQSPAILSASPGEKVTMTCSASSSVSYIYWYQQKPRSSPRLLIYDTSNLASGVPVRFSGSGSGTSYSLTISRMEAEDAATYYCQQWSSYPFTFGGGTKLEVK
